Reference: patent US20230021388A1 (VELOSBIO, published 2023)
Residue numbers refer to the chain shown, from its start. Numbers in names are those of the source.

B1: Ab1 Fab variant L3 Q108R (Fab, V domains shown)
VH: QVQLQESGPGLVKPSQTLSLTCTVSGYAFTAYNIHWVRQAPGQGLEWMGSFDPYDGGSSYNQKFKDRLTISKDTSKNQVVLTMTNMDPVDTATYYCARGWYYFDYWGHGTLVTVSS
VL: DIVMTQTPLSLPVTPGEPASISCRASKSISKYLAWYQQKPGQAPRLLIYSGSTLQSGIPPRFSGSGYGTDFTLTINNIESEDAAYYFCQRHDESPYTFGEGTKVEIK
notes: Fab
B2: Ab1 Fab variant H3 Y138T (Fab, V domains shown)
VH: B1 VH with Y105T
VL: B1 VL with R90Q
notes: Fab
B3: Ab1 Fab variant L3 Y137V (Fab, V domains shown)
VH: B1 VH
VL: B1 VL with R90Q, Y96V
notes: Fab
B4: Ab1 Fab variant L3 T138S (Fab, V domains shown)
VH: B1 VH
VL: B1 VL with R90Q, T97S
notes: Fab
B5: Ab1 Fab variant L3 D110N (Fab, V domains shown)
VH: B1 VH
VL: B1 VL with R90Q, D92N
notes: Fab
B6: Ab1 Fab variant H3 Y111A (Fab, V domains shown)
VH: B1 VH with Y101A
VL: B1 VL with R90Q
notes: Fab
B7: Ab1 Fab variant L3 S135H (Fab, V domains shown)
VH: B1 VH
VL: B1 VL with R90Q, S94H
notes: Fab
B8: Ab1 Fab variant L3 Q108L (Fab, V domains shown)
VH: B1 VH
VL: B1 VL with R90L
notes: Fab
B9: Ab1 Fab variant L3 E111I (Fab, V domains shown)
VH: B1 VH
VL: B1 VL with R90Q, E93I
notes: Fab
B10: Ab1 Fab variant H3 Y111L (Fab, V domains shown)
VH: B1 VH with Y101L
VL: B1 VL with R90Q
notes: Fab
B11: Ab1 Fab variant L3 D110H (Fab, V domains shown)
VH: B1 VH
VL: B1 VL with R90Q, D92H
notes: Fab
B12: Ab1 Fab variant L3 S135V (Fab, V domains shown)
VH: B1 VH
VL: B1 VL with R90Q, S94V
notes: Fab
B13: Ab1 Fab variant H3 Y138Q (Fab, V domains shown)
VH: B1 VH with Y105Q
VL: B1 VL with R90Q
notes: Fab
B14: Ab1 Fab variant L3 H109N (Fab, V domains shown)
VH: B1 VH
VL: B1 VL with R90Q, H91N
notes: Fab
B15: Ab1 Fab variant H3 R108G (Fab, V domains shown)
VH: B1 VH with R98G
VL: B1 VL with R90Q
notes: Fab
B16: Ab1 Fab variant L3 Q107S (Fab, V domains shown)
VH: B1 VH
VL: B1 VL with Q89S, R90Q
notes: Fab
B17: Ab1 Fab variant L3 S135P (Fab, V domains shown)
VH: B1 VH
VL: B1 VL with R90Q, S94P
notes: Fab
B18: Ab1 Fab variant L3 S135G (Fab, V domains shown)
VH: B1 VH
VL: B1 VL with R90Q, S94G
notes: Fab
B19: Ab1 Fab variant L3 H109Q (Fab, V domains shown)
VH: B1 VH
VL: B1 VL with R90Q, H91Q
notes: Fab
B20: Ab1 Fab variant L3 T138F (Fab, V domains shown)
VH: B1 VH
VL: B1 VL with R90Q, T97F
notes: Fab
B21: Ab1 Fab variant L3 Q108A (Fab, V domains shown)
VH: B1 VH
VL: B1 VL with R90A
notes: Fab
B22: Ab1 Fab variant L3 Y137T (Fab, V domains shown)
VH: B1 VH
VL: B1 VL with R90Q, Y96T
notes: Fab
B23: Ab1 Fab variant H3 Y138V (Fab, V domains shown)
VH: B1 VH with Y105V
VL: B1 VL with R90Q
notes: Fab
B24: Ab1 Fab variant L3 E111L (Fab, V domains shown)
VH: B1 VH
VL: B1 VL with R90Q, E93L
notes: Fab
B25: Ab1 Fab variant H1 T32A + H2 F58I (Fab, V domains shown)
VH: B1 VH with T30A, F51I
VL: B1 VL with R90Q
notes: Fab
B26: Ab1 Fab variant H1 T32A + H2 F58I, S69V (Fab, V domains shown)
VH: B1 VH with T30A, F51I, S59V
VL: B1 VL with R90Q
notes: Fab
B27: Ab1 Fab variant H1 T32A + H2 G66E (Fab, V domains shown)
VH: B1 VH with T30A, G56E
VL: B1 VL with R90Q
notes: Fab
B28: Ab1 Fab variant H1 T32A + H2 F58I, G66E (Fab, V domains shown)
VH: B1 VH with T30A, F51I, G56E
VL: B1 VL with R90Q
notes: Fab
B29: Ab1 Fab variant H1 T32A + H2 F58I, N71H (Fab, V domains shown)
VH: B1 VH with T30A, F51I, N61H
VL: B1 VL with R90Q
notes: Fab
B30: Ab1 Fab variant H1 T32A + H2 F58V (Fab, V domains shown)
VH: B1 VH with T30A, F51V
VL: B1 VL with R90Q
notes: Fab
B31: Ab1 Fab variant H1 T32A + H2 F58I, G66E, N71H (Fab, V domains shown)
VH: B1 VH with T30A, F51I, G56E, N61H
VL: B1 VL with R90Q
notes: Fab
B32: Ab1 Fab variant H1 T32A + H2 G66E, S69V, N71H (Fab, V domains shown)
VH: B1 VH with T30A, G56E, S59V, N61H
VL: B1 VL with R90Q
notes: Fab
B33: Ab1 Fab variant H1 T32A + H2 F58V, N71H (Fab, V domains shown)
VH: B1 VH with T30A, F51V, N61H
VL: B1 VL with R90Q
notes: Fab
B34: Ab1 Fab variant H1 T32A + H2 F58V, G66E, S69V (Fab, V domains shown)
VH: B1 VH with T30A, F51V, G56E, S59V
VL: B1 VL with R90Q
notes: Fab
B35: Ab1 Fab variant H1 T32A + H2 F58V, S69V, N71H (Fab, V domains shown)
VH: B1 VH with T30A, F51V, S59V, N61H
VL: B1 VL with R90Q
notes: Fab
B36: Ab1 Fab variant H1 T32A + H2 F58V, G66E (Fab, V domains shown)
VH: B1 VH with T30A, F51V, G56E
VL: B1 VL with R90Q
notes: Fab

The binders below were run against T1, recombinant human ROR1 extracellular domain (human, UniProt Q01973 30-406) (assay: capture filter lift).
T1 construct: biotinylated for the filter lifts; also called huROR1-ECD; human ROR1-ECD
T1 sequence (Q01973 30-406 limits assumed): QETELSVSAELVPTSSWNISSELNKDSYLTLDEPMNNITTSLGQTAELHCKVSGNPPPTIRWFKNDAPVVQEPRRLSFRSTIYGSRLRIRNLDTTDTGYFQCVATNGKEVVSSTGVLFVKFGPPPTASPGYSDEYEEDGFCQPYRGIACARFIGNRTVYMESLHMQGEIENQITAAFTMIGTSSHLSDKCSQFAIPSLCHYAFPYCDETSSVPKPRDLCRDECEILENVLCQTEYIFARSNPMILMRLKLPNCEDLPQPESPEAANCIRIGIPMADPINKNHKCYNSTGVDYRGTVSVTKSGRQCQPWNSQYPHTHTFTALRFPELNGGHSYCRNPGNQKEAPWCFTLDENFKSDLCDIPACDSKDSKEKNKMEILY
Protocol: Subsequently, the filter was applied to the agar plates as described above. For detection of antigen binding, the filter was rinsed briefly in PBS, and transferred to biotinylated huROR1-ECD (ACROBiosystems, cat. #RO1-H522y) in 5% M-P.
Filters were incubated with 2.3 nM biotinylated ROR1 diluted in 5% M-P for 2 h at 25° C. with constant agitation, and washed 5 times, 2 minutes each wash, with constant agitation in PBS-T. Alternatively, filters were washed more rapidly using a squirt bottle and sintered glass funnel for vacuum filtration. The filters were transferred to 10 mL of High Sensitivity Neutravidin, HRP conjugate (Thermo Scientific, cat. #31030) diluted 5000-fold in 1% BSA in PBS and incubated for 1 h at 25° C. The filters were then washed 5 times in PBS-T and were developed with 1-Step Ultra TMB-Blotting.
All libraries were initially screened by capture lift to identify variants with improved binding. The capture lift assay, described in Example 1, enables the filter lift assay to discern variants that bind antigen more strongly based on the staining intensity. In order to determine the optimal concentration of antigen to use for screening, biotinylated huROR1-ECD was titrated on a capture lift of Ab1 Fab. Binding to Ab1 was clearly visible at antigen concentrations ≥23 nM and the signal was diminished at lower huROR1 concentrations. […] In addition, for more stringent screening, filters were probed with lower concentrations of antigen and/or development of the filter was terminated earlier, before the Ab1 staining was visible. […] In this example, approximately 250 library variants were plated. Twelve variants clearly bound huROR1 (FIG. 4, numbered).

binding result | Binder
binds | B1
binds | B2
binds | B3
binds | B4
binds | B5
binds | B6
binds | B7
binds | B8
binds | B9
binds | B10
binds | B11
binds | B12
binds | B13
binds | B14
binds | B15
binds | B16
binds | B17
binds | B18
binds | B19
binds | B20
binds | B21
binds | B22
binds | B23
binds | B24

Each binder was assayed against T1, recombinant human ROR1 extracellular … (assay: ELISA with prolonged wash, soluble Fab on coated huROR1-ECD).
Protocol: The previously described filter lift assay provides a visual, qualitative assessment of antigen binding (Example 1). In order to assess the ROR1 binding activity of Ab1 Fab in a more quantitative fashion, an ELISA assay was developed. A 96-well Costar-3366 plate was coated with 50 μL/well of 1 μg/mL human ROR1-ECD (ACROBiosystems, cat. #RO1-H522y) in PBS overnight at 4° C. The plate was rinsed once with PBS-T and blocked with 100 μL/well of 5% M-P for 1 h at 25° C. Fab samples were serially diluted 3-fold using 5% M-P and 50 μL/well was incubated for 1 h at 25° C. The plate was washed three times with PBS-T and 50 μL/well anti-human kappa, and HRP conjugate (Southern Biotech, cat. #2060-05) diluted 10,000-fold in 5% M-P was added for 1 h at 25° C. In certain assays (extended wash format), the plate was placed in large volumes (up to 1 L) of PBS-T and incubated, with mixing, for 2-5 h prior to the addition of anti-human kappa, HRP conjugate. The plate was washed three times with PBS-T, and developed with 50 μL/well 1-Step Ultra TMB-ELISA (Thermo Scientific, cat. #34028). The reaction was terminated by the addition of 2 N H2504 and the A450 was determined using a Spectramax plate reader.
Subsequently, the libraries were screened by capture lift to identify the strongest binding variants. The identity of the variants was determined by DNA sequencing and the relative affinities were characterized using an ELISA (described in Example 2) modified to enable further discrimination between the highest affinity variants. Specifically, following the initial incubation with soluble Fab, the plates were washed for a prolonged time (>1 h) in large volumes of PBS-T. The plates were then developed as described in Example 2.

Kd [nM] | Binder
4.5 | B25
8.5 | B26
2.7 | B27
5 | B28
2.2 | B29
3.2 | B30
3.4 | B31
3.2 | B32
2.4 | B33
8 | B34
3.9 | B35
3 | B36
